Source: patent US20240336683A1 (published 2024)

T1: full-length human Siglec15 with C-terminal flag and Myc tags on HEK293 cells (human, UniProt Q6ZMC9 20-328)
T1 construct: whole, on cells; also called Siglec15/HEK293; HEK293-Siglec 15; not shown: C-terminal flag and Myc tags from pCMV6-Entry vector
T1 sequence (looked up): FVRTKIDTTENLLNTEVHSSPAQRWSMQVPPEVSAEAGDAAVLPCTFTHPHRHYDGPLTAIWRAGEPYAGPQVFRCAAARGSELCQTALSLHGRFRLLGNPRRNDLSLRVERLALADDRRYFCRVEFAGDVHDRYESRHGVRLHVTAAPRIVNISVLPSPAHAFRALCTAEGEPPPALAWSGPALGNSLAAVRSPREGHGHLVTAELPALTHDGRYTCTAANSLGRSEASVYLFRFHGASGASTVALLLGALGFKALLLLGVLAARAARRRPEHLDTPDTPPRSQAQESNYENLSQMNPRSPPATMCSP

T2: human Siglec 15-HIS tagged recombinant protein (human, UniProt Q6ZMC9 20-263)
T2 construct: Recombinant soluble protein; also called rhSiglec15 His; human Siglec15-HIS tagged protein; not shown: HIS tag
T2 sequence (looked up): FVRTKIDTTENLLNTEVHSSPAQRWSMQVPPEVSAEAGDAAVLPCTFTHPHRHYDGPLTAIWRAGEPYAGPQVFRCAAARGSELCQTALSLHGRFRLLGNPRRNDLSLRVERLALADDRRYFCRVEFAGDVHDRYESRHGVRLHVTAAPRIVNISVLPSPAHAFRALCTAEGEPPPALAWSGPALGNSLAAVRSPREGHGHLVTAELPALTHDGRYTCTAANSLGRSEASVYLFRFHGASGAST

T3: rcynoSiglec15 His (cyno, UniProt A0A2K5UY47 20-262)
T3 construct: not shown: His tag
T3 sequence: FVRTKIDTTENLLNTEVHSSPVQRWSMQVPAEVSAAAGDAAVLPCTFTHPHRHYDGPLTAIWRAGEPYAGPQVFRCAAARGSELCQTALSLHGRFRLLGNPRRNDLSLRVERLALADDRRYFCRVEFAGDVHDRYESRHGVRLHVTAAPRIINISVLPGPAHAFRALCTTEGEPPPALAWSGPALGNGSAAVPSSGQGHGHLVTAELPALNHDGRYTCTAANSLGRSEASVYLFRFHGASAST

T4: rmouseSiglec15 His (mouse, UniProt A7E1W8 20-262)
T4 sequence: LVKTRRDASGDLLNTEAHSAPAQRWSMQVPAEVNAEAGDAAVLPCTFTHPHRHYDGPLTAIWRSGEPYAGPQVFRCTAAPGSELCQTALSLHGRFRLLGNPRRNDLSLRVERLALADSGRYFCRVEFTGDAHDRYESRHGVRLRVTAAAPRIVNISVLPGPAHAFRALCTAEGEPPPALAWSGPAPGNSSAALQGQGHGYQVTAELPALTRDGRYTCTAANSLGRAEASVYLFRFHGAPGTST

B1: 2020EP032-B03 IgG (antibody, V domains shown)
VH: QVQLQQWGAGLLKPSETLSLTCAVYGGSFSGYYWSWIRQPPGKGLEWIGEINHSGSTNYNPSLKSRVTISVDTSKNQFSLKLSSVTAADTAVYYCARGPLRKYYDFWSGSRNYYYYGMDVWGQGTTVTVSS
VL: QPVLTQDPAVSVALGQTVRITCQGDSLRSNYASWYQLKPGQAPVLVIYDKNNRPSGIPDRFSGSNSGNTASLTIAGAQAEDEADYYCTSRDSSGTVFGGGTKLTVL
notes: IgG form expressed in ExpiHEK293-F cells; detected with anti-hFc; also called 2020EP32-B03
B2: 2020EP032-H11 IgG (antibody, V domains shown)
VH: EVQLVESGGGLVKPGGSLRLSCAASGFTFSSYSMNWVRQAPGKGLEWVSSISSSSSYIYYADSVKGRFTISRDNAKNSLYLQMNSLRAEDTAVYYCARDYRGYSGQNYYGMDVWGQGTTVTVSS
VL: QSALTQPPSVSAAPRQKVTISCSGSSSNIGNNDVSWYQQLPGTVPKLLIYDNNKRPSGIPDRFSGSKSGTSASLGITGLQTGDEADYYCGVWDSSLSGYVFGTGTKVTVL
notes: IgG form expressed in ExpiHEK293-F cells; detected with anti-hFc; also called 2020EP32-H11; H11 mAb
B3: 2019EP47-A02 IgG (antibody, V domains shown)
VH: EVQLVQSGGGVVQPGRSLRLSCAASGFTFSSYAMHWVRQAPGKGLEWVAVISYDGSNKYYADSVKGRFTISRDNSKNTLYLQMNSLRAEDTAVYYCARSRYSSSLRRYYGMDVWGQGTTVTVSS
VL: AIQLTQSPSSLSASVGDRVTITCQATHDIANYLNWYQQKPGKAPKLLIYAASNLETGVPSRFSGSGSGTDFTFAISSLQPEDIAVYYCQQYDNLPLTFGGGTKVEIK
notes: IgG form expressed in ExpiHEK293-F cells; detected with anti-hFc
B4: 2019EP47-A10 IgG (antibody, V domains shown)
VH: QMQLVQSGGGVVQPGRSLRLSCAASGFTFSSYGMHWVRQAPGKGLEWVAVISYDGSNKYYADSVKDRFTISRDNSKNTLYLQMNSLRAEDTAVYYCAKDIVGDSGSYPIYYYYGMDVWGQGTTVTVSS
VL: SQSALTQPHSVSESPGKTVTISCTRSSGSIASNYVQWYQQRPGSAPSTVIYEDNQRPSGVPDRFSGSVDISSNSASLTISGLQTEDEADYYCQSYDNDNMVFGGGTKLTVL
notes: as for B3

Key:
[1] = target: T1, full-length human Siglec15 with …; assay: FACS on Siglec15/HEK293 cells, IgG, anti-hFc Alexa fluor 647
[2] = target: T2, human Siglec 15-HIS tagged recombinant …; assay: ELISA; His-tagged Siglec15 coated, IgG titrated, anti-hFc HRP
Description: (§1) An ELISA assay was developed to determine the EC50 of anti-Siglec15 IgG antibodies. Briefly, a 384 well plate was immobilized with human Siglec 15-HIS tagged recombinant protein at a final concentration of 2 ug/mL in 1×PBS in total volume of 25 uL per well. The plate was incubated overnight at 4° C. followed by blocking with 80 uL of superblock per well for 1 hour. Titration of purified anti-Siglec15 IgG was performed, starting at 200 nM 2-fold serial dilution, then 25 uL was added to the human Siglec15 immobilized wells and incubated for 1 hour with shaking. The Siglec15 binding was detected by adding 25 uL of anti-hFc HRP diluted at 1:5000 in 1×PBST. In between each step, the plate was washed 3 times with 1×PBST in a plate washer. The plate was then developed with 20 ul of TMB substrate for 5 mins and stopped by adding 20 ul of 2N sulfuric acid. The plate was read at OD450 nm Biotek plate reader and then plotted in Prism 8.1 software. Similar binding experiments were done for mouse Siglec15 and cyno Siglec15 to check the cross activity of the IgG antibodies to those two species.

rcynoSiglec15 His = target: T3, rcynoSiglec15 His; assay: as above
Description: as §1

rmouseSiglec15 His = target: T4, rmouseSiglec15 His; assay: as above
Description: as §1

[3] = target: T2, human Siglec 15-HIS tagged recombinant …; assay: SPR Biacore T200; IgG captured on Protein A chip, Siglec15-HIS as analyte
Description: Kinetic analysis of anti-Siglec15 IgG was assessed by SPR technology with Biacore T200. The assay was run with Biacore T200 control software version 2.0. For each cycle, 1 ug/mL of anti-Siglec15 IgG was captured for 60 seconds at flow rate of 10 ul/min on flow cell 2 in 1× HBSP buffer on Protein A sensor chip. 2-fold serial human Siglec15-HIS tagged protein was injected onto both reference flow cell 1 and anti-Siglec15 IgG captured flow cell 2 for 150 seconds at flow rate of 30 ul/mins followed by wash for 300 seconds. The flow cells were then regenerated with Glycine pH2 for 60 seconds at flow rate of 30 ul/mins. 8 concentration points from 100-0 nM were assayed per anti-Siglec15 IgG in a 96 well plate. The kinetics of Anti-Siglec15 IgG binding to Siglec 15 protein was analyzed with Biacore T200 evaluation software version 3.0. The specific binding response unit was derived from subtraction of binding to reference flow cell 1 from antibody captured flow cell 2.

Binder | EC50 [1] [nM] | EC50 [2] [nM] | EC50 (rcynoSiglec15 His) [nM] | EC50 (rmouseSiglec15 His) [nM] | Kd [3] [nM] | koff [3] [s⁻¹]
B1 | 1.92 | 0.527 | 1.21 | 0.248 | – | –
B2 | 0.022 | 0.0228 | 0.0258 | 0.0105 | – | –
B3 | 0.35 | 0.0289 | – | – | 2.4 | 0.000311
B4 | – | 0.119 | 0.171 | 0.109 | 3.8 | 0.000368
